The target of series [1] is T1, human serum albumin (HSA) (Homo sapiens, UniProt P02768).
T1 construct: purchased Sigma A5763
The format is binding. The protocol: FIG. 10: Surface plasmon resonance analysis of the binding of Nanobody® (2D3) and Nanobody® fusion peptide (2D3-17D12) on human serum albumin (HSA). Coating of the chip (CM5) was performed by amine coupling using NHS/EDC for activation and ethanolamine for deactivation (Biacore amine coupling kit). hip coated with 7000 RU human serum albumin (Sigma, 99% pure) and 2500 RU irrelevant protein antigen. 2D3 and 2D3-17D12 was successively injected over the chip in increasing concentrations (1.25 μM, 2.5 μM and 5 μM). HBS-EP was used as flow buffer at a rate of 10 μl min-1.20 μl of sample was injected for 20 s.
The 2D3-17D12 fusion protein […] […] […] (SEQ ID NO: 30) was expressed in E. coli TG1 cells. The fusion protein was purified by IMAC/SEC and binding to HSA was assessed in BIAcore™ 3000. Therefore, a dilution series of 2D3-17D12 fusion protein and 2D3 Nanobody was injected on a CM5 chip coated with high density HSA (7000RU). […] Calculated affinity of 2D3-17D12 for HSA is ˜10 μM.

Series [2] deals with T2, rhErbB2-Fc antigen (Homo sapiens, UniProt P04626).
T2 construct: purchased R&D Systems
As to the kind of experiment: Surface plasmon resonance: simultaneous binding to HER2 and HSA, chip coated with rhErbB2-Fc. The following applies: pre-incubated with HSA (1 and 5 μM); ~3000 RU rhErbB2-Fc. The protocol: FIG. 11: Surface plasmon resonance analysis of simultaneous binding of 2D3-17D12 fusion protein to HER2 antigen and human serum albumin (HSA). 2D3-17D12 fusion protein was pre-incubated or not with 1 and 5 μM HSA, followed by flow over immobilized 2D3 target antigen, rhErbB2-Fc. The dotted line represents the binding characteristics of 2D3 in presence of 25 μM HSA.
To examine whether the 2D3 Nanobody and the 17D12 CDR3 can simultaneously bind their respective target antigen (Her-2 antigen for 2D3 Nanobody, albumin for 17D12 CDR3), the following experiment was performed. 2D3-17D12 fusion protein was pre-incubated or not with increasing concentration of HSA and then injected on a CM5 chip coated with rhErbB2-Fc antigen (R&D Systems) at a density of ˜3000 RU.

In series [3] the test system is irrelevant protein. As to the kind of experiment: Surface plasmon resonance control on CM5 chip coated with irrelevant protein. The conditions noted are these: 2.5 μM injected; 2400 RU irrelevant protein. The format is binding.
The target of series [4] is T3, bovine serum albumin (bovine, UniProt P02769 25-607).
T3 construct: also called BSA
The series is described as follows: phage binding assay on coated Maxisorp wells, 5 phage dilutions per peptide, Odyssey image. The protocol:
(§1) Binding of 17D12, as selected from primary screening after 2 selection rounds on HSA, to serum albumin of different species [mouse serum albumin (MSA, A3559, Sigma), cynomolgus serum albumin (CSA, in-house production), bovine serum albumin (BSA, A6003, Sigma) and HSA] and to negative control antigens [ovalbumin, human tumor necrosis factor α (TNF, in-house production)] was assessed using different phage concentrations. Additionally, similar binding studies were performed with two truncated variants of 17D12. Both peptides, i.e. 17D12-CDR3-NC (SEQ ID NO: 26) and 17D12-CDR3-C (SEQ ID NO;27), lack the flanking FR residues of 17D12 and the former is a non-constrained loop, whereas the latter is constrained (FIG. 4).
(§2) The phage binding assay was performed essentially as described in example 4. Full length 17D12 peptide as well as truncated peptides, 17D12-CDR3-NC and 17D12-CDR3-C, bind dose-dependently to HSA and CSA, whereas reactivity to MSA and BSA was not apparent in the assay performed (FIG. 6). There is no significant non-specific binding of 17D12 and 17D12-CDR3-NC to irrelevant proteins tested (ovalbumin and TNF). In contrast, there is a subtle degree of non-specific binding with the constrained truncated peptide.

Series [5] addresses T4, human tumor necrosis factor α (human, UniProt P01375 77-233).
T4 construct: Negative control antigen; also called TNF
The series is described as above. The protocol:
as §1, §2

Series [6] deals with T5, ovalbumin (negative control antigen) (UniProt P01012 2-386).
T5 construct: Bought protein
T5 sequence (looked up): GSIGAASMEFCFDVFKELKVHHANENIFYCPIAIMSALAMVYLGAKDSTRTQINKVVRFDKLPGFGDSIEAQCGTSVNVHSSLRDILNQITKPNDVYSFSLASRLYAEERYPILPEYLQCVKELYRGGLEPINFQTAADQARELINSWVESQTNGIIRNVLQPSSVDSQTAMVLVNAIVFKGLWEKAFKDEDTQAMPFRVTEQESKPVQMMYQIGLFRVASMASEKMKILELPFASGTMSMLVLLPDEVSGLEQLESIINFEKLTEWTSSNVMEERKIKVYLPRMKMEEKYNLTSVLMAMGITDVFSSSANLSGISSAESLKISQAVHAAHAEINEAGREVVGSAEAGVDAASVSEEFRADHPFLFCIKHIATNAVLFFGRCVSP
The description is as above. The protocol:
as §1, §2

The target in series [7] is T6, mouse serum albumin (mouse, UniProt P07724 25-608).
T6 construct: also called MSA
The series is described as above. The procedure:
as §1, §2

The target in series [8] is T7, human serum albumin (human, UniProt P02768 25-609).
T7 construct: Bought protein; also called HSA
The series is described as follows: phage binding assay: 10 µg/mL HSA coated on Maxisorp, M13 phage displaying the peptide on pIII in 1/2 dilution series, anti-M13 + goat anti-mouse IRDye700, Odyssey intensity. The protocol: After two selection rounds, monoclonal phage were screened for binding on HSA versus negative control antigen, ovalbumin (A5378, Sigma). Wells of a Maxisorp microtiter plate (Nunc) were coated using 10 μg/mL HSA or ovalbumin and blocked with SuperBlock T20 PBS Blocking Buffer (Pierce) to prevent non-specific binding. Phages, produced in 96-well plate, were diluted 1/10 in 1:1 (v:v) Superblock T20 PBS Blocking Buffer:PBS+0.05% Tween-20 and incubated on both HSA and ovalbumin. Bound phages were detected using anti-M13 (GE Healthcare) and goat anti-mouse IRDye700 (Rockland) and signals were read-out on Odyssey (LI-COR Biosciences). […] This peptide is referred to as 17D12. Its full amino acid sequence is given in SEQ ID NO: 1, and its encoding nucleotide sequence is given in SEQ ID NO:2. The amino acid sequence of the CDR3 loop is given in SEQ ID NO:3.
The phage binding assay was performed essentially as described in example 3. Phages, produced in 10 mL culture volume, were incubated on both HSA and ovalbumin in a ½ dilution series, starting with 7.5×10¹¹ phages/mL. […] Non-specific binding to ovalbumin is slightly higher for the constrained truncated peptide.

The target of series [9] is T8, cynomolgus serum albumin (cynomolgus, UniProt A2V9Z4 25-608).
T8 construct: also called CSA; cynoSA
The series is described as follows: phage binding assay on coated Maxisorp wells, 5 phage dilutions per peptide (concentrations not given), Odyssey image. The procedure: as §1, §2

Ends that are not written are not given here.

T6 sequence (P07724 25-608 limits assumed): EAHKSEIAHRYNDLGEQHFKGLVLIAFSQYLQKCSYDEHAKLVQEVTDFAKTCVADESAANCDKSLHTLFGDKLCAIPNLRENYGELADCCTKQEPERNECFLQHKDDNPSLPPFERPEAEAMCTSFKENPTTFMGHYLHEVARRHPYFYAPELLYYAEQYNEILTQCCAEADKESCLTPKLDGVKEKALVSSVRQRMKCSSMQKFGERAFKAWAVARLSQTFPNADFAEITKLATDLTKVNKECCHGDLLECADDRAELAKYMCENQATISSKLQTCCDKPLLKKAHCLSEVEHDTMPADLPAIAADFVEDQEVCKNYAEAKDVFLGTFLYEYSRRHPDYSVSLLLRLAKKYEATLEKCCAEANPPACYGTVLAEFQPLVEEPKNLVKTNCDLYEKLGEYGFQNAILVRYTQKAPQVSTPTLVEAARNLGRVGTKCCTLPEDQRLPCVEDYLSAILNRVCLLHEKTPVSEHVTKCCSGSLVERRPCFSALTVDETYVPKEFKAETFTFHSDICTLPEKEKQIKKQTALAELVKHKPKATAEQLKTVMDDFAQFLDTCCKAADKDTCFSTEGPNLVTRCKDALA
T4 sequence (P01375 77-233 limits assumed): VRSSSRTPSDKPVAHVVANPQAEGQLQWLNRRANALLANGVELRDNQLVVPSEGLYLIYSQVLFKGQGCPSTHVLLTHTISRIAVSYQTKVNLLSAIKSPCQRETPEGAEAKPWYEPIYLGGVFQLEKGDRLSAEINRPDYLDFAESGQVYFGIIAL
T8 sequence (A2V9Z4 25-608 limits assumed): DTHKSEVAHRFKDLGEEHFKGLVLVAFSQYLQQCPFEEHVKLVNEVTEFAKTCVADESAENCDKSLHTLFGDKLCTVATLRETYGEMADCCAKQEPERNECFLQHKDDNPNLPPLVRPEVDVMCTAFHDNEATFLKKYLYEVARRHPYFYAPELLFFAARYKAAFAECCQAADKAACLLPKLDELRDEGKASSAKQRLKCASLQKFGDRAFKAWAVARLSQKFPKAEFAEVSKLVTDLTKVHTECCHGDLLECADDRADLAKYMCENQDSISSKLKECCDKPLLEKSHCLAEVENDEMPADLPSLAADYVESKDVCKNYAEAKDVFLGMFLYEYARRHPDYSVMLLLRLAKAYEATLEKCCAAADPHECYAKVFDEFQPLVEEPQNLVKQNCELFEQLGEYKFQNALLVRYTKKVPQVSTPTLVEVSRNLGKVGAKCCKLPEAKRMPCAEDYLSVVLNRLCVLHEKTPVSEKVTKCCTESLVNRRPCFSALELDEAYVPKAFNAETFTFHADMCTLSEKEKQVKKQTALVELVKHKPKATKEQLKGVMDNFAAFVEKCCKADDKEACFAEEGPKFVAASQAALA
T3 sequence (P02769 25-607 limits assumed): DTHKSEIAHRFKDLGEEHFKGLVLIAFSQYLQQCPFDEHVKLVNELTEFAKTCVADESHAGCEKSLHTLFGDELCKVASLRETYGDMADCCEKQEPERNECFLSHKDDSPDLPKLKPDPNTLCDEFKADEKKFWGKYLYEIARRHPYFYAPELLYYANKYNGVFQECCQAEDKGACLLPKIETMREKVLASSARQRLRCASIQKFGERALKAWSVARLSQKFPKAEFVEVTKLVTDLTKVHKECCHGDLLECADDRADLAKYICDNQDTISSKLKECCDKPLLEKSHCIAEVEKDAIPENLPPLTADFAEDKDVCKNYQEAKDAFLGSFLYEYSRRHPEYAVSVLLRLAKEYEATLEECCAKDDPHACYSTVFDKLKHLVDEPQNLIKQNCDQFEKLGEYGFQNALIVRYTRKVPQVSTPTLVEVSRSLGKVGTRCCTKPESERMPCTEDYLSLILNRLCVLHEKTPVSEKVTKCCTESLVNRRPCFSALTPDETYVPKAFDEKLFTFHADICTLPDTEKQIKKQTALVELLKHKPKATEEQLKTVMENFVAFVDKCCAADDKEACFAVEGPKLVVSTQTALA

B1: 2D3-17D12: fusion of HER2-binding VHH 2D3 with HSA-binding peptide 17D12, expressed in E. coli TG1 (protein)
chain: EVQLVESGGSLVQPGGSLRLSCAASGFTFDDYAMSWVRQVPGKGLEWVSSINWSGTHTDYADSVKGRFTISRNNANNTLYLQMNSLKSEDTAVYYCAKNWRDAGTTWFEKSGSAGQGTQVTVSSDTAVYYCNAAASYSDYDVFGGGTDFGPWGQGTQVGGGS
modifications: 2D3-17D12 fusion protein
In series [1], B1 registered an equilibrium dissociation constant (Kd) of roughly 10 µM. In addition, the “Binding to HSA (SPR)” value in series [1] (7000 RU HSA, injected at 1.25, 2.5 and 5 μM) is on record as “dose-dependent binding”. Besides, in [2], the “Off-rates on rhErbB2-Fc, premixed with HSA compared to control injection” value was “slightly higher but comparable off-rates”. Further, the “Binding to irrelevant protein (SPR control)” value in series [3] is “no specific binding was detected”.

As to AAASYSDYDVFGGGTDFGPA (peptide, not shown: large carriers, not fully specified, Tested as phage), the binding result in series [4] is “no binding”; in series [5], “no binding”; in series [6], “no binding”; in [7] it was “no binding”; in series [9], “binds”. In addition, the “EC50 (read off the curve)” value in series [8] is roughly 7e+10 phage/mL.

The values above are taken from patent publication US20080267949A1, “Peptides capable of binding to serum proteins” (Ablynx N.V., priority 2006, published 2008).
